From article PMC7261175, “A splice site-sensing conformational switch in U2AF2 is modulated by U2AF1 and its recurrent myelodysplasia-associated mutation” (Nucleic Acids Research, 2019)

How the values were obtained:
[1] = molecular target: T1, His6SumoMBP-U2AF1;U2AF2 Cy3/Cy5 (human;human, UniProt Q01081;P26368-2 1-188;85-342, C67S|A181C;C305A;Q324C); assay: smFRET titration; protein tethered; from 0.4 and 0.6 FRET peak areas; Anisotropy: 150 mM NaCl, 25 mM HEPES pH 6.8, 0.5 mM TCEP, 3% glycerol, 20 uM ZnCl2, 0.2 U/ul SUPERase-In; smFRET: 25 mM HEPES pH 7.0, 150 mM KCl, 0.01% octaethylene glycol monododecyl ether, 0.2 mM TCEP, 6 mM BME, 1.5 mM Trolox, oxygen scavenger, room temperature, excess U2AF1 (1000 nM) with heterodimer; conditions: protein: recombinant;recombinant; tags: N-terminal His6-SUMO-MBP with AAA linker; C-terminal extra Ala;GST cleaved; Cy3/Cy5 on C181 and C324; copies: 1;1
[2] = molecular target: T2, His6SumoMBP-U2AF1 S34F;U2AF2 Cy3/Cy5 (human;human, UniProt Q01081;P26368-2 1-188;85-342, S34F;C67S|A181C;C305A;Q324C); assay: smFRET; RNA tethered; similar to WT; Anisotropy: 150 mM NaCl, 25 mM HEPES pH 6.8, 0.5 mM TCEP, 3% glycerol, 20 uM ZnCl2, 0.2 U/ul SUPERase-In; smFRET: 25 mM HEPES pH 7.0, 150 mM KCl, 0.01% octaethylene glycol monododecyl ether, 0.2 mM TCEP, 6 mM BME, 1.5 mM Trolox, oxygen scavenger, room temperature, excess U2AF1 (1000 nM) with heterodimer; conditions: protein: recombinant;recombinant, tags: N-terminal His6-SUMO-MBP with AAA linker, C-terminal extra Ala;GST cleaved, Cy3/Cy5 on C181 and C324, copies: 1;1, label: biotin on annealed DNA
[3] = molecular target: T3, U2AF2 Cy3/Cy5 isolated subunit (human, UniProt P26368-2 113-342, A181C;C305A;Q324C); assay: smFRET; RNA tethered; open and closed; Anisotropy: 150 mM NaCl, 25 mM HEPES pH 6.8, 0.5 mM TCEP, 3% glycerol, 20 uM ZnCl2, 0.2 U/ul SUPERase-In; smFRET: 25 mM HEPES pH 7.0, 150 mM KCl, 0.01% octaethylene glycol monododecyl ether, 0.2 mM TCEP, 6 mM BME, 1.5 mM Trolox, oxygen scavenger, room temperature, excess U2AF1 (1000 nM) with heterodimer; conditions: protein: recombinant; tags: His6 and T7 tags; Cy3/Cy5; label: biotin on annealed DNA
[4] = molecular target: T1, His6SumoMBP-U2AF1;U2AF2 Cy3/Cy5; assay: as above; conditions: protein: recombinant;recombinant; tags: N-terminal His6-SUMO-MBP with AAA linker; C-terminal extra Ala;GST cleaved; Cy3/Cy5 on C181 and C324; copies: 1;1; label: biotin on annealed DNA
[5] = molecular target: T4, D215R/G319R U2AF2^Cy3/Cy5 (residues 85-342, C305A, A181C, Q324C, labelled with Cy3/Cy5) (human, UniProt P26368-2 85-342, D215R | G319R | C305A | A181C | Q324C, Cy3- or Cy5-maleimide on the cysteines at 181 and 324 (a mixture of Cy3/Cy5 at each site)); assay: single-molecule imaging (smFRET, TIRF) of labelled U2AF2 tethered to the slide through His-tagged U2AF1; His6SumoMBP-U2AF1 with bound U2AF2^Cy3/Cy5 (5 nM heterodimer) held on biotinyl-NTA(Ni2+)/neutravidin slide; 1000 nM excess U2AF1 in the buffer; no RNA; room temperature; 25 mM HEPES pH 7.0, 150 mM KCl; conditions: both partners purified
T4 construct: The methods print the mutant once as D215R-D319R; results, legends and discussion print D215R/G319R; also called D215R/G319R mutant; D215R-D319R-mutant U2AF2; not shown: GST, N-terminal, cleaved

[6] = molecular target: T5, U2AF2^Cy3/Cy5 (residues 85-342, C305A, A181C, Q324C, labelled with Cy3/Cy5) (human, UniProt P26368-2 85-342, C305A | A181C | Q324C, Cy3- or Cy5-maleimide on the cysteines at 181 and 324 (a mixture of Cy3/Cy5 at each site)); assay: SEC; labelled U2AF2 mixed with stoichiometric His6SumoMBP-U2AF1, salt lowered to 150 mM NaCl, 25 mM HEPES pH 7.0, 3% glycerol, 0.2 mM TCEP; complex purified on Superdex-200; conditions: both partners purified
T5 construct: pGEX6p-1 vector, GST removed with PreScission protease; also called U2AF^65; labeled U2AF2; not shown: GST, N-terminal, cleaved

[7] = molecular target: T5, U2AF2^Cy3/Cy5 (residues 85-342, C305A, …); assay: single-molecule imaging (smFRET, TIRF) of labelled U2AF2 tethered to the slide through His-tagged U2AF1; His6SumoMBP-U2AF1 with bound U2AF2^Cy3/Cy5 (5 nM heterodimer) held on biotinyl-NTA(Ni2+)/neutravidin slide; 1000 nM excess U2AF1 in the buffer; no RNA; room temperature; 25 mM HEPES pH 7.0, 150 mM KCl; conditions: both partners purified
[8] = molecular target: T1, His6SumoMBP-U2AF1;U2AF2 Cy3/Cy5; assay: smFRET; RNA tethered; ~70% closed; Anisotropy: 150 mM NaCl, 25 mM HEPES pH 6.8, 0.5 mM TCEP, 3% glycerol, 20 uM ZnCl2, 0.2 U/ul SUPERase-In; smFRET: 25 mM HEPES pH 7.0, 150 mM KCl, 0.01% octaethylene glycol monododecyl ether, 0.2 mM TCEP, 6 mM BME, 1.5 mM Trolox, oxygen scavenger, room temperature, excess U2AF1 (1000 nM) with heterodimer; conditions: protein: recombinant;recombinant; tags: N-terminal His6-SUMO-MBP with AAA linker; C-terminal extra Ala;GST cleaved; Cy3/Cy5 on C181 and C324; copies: 1;1; label: biotin on annealed DNA; stem-loop
[9] = molecular target: T3, U2AF2 Cy3/Cy5 isolated subunit; assay: smFRET; RNA tethered; Anisotropy: 150 mM NaCl, 25 mM HEPES pH 6.8, 0.5 mM TCEP, 3% glycerol, 20 uM ZnCl2, 0.2 U/ul SUPERase-In; smFRET: 25 mM HEPES pH 7.0, 150 mM KCl, 0.01% octaethylene glycol monododecyl ether, 0.2 mM TCEP, 6 mM BME, 1.5 mM Trolox, oxygen scavenger, room temperature, excess U2AF1 (1000 nM) with heterodimer; conditions: protein: recombinant, tags: His6 and T7 tags, label: biotin on annealed DNA, stem-loop
[10] = molecular target: T1, His6SumoMBP-U2AF1;U2AF2 Cy3/Cy5; assay: smFRET; RNA tethered; more open than IgM(-3C); Anisotropy: 150 mM NaCl, 25 mM HEPES pH 6.8, 0.5 mM TCEP, 3% glycerol, 20 uM ZnCl2, 0.2 U/ul SUPERase-In; smFRET: 25 mM HEPES pH 7.0, 150 mM KCl, 0.01% octaethylene glycol monododecyl ether, 0.2 mM TCEP, 6 mM BME, 1.5 mM Trolox, oxygen scavenger, room temperature, excess U2AF1 (1000 nM) with heterodimer; conditions: protein: recombinant;recombinant; tags: N-terminal His6-SUMO-MBP with AAA linker; C-terminal extra Ala;GST cleaved; Cy3/Cy5 on C181 and C324; copies: 1;1; label: biotin on annealed DNA; stem-loop (predicted)
[11] = molecular target: T2, His6SumoMBP-U2AF1 S34F;U2AF2 Cy3/Cy5; assay: smFRET; RNA tethered; same as IgM(-3C); Anisotropy: 150 mM NaCl, 25 mM HEPES pH 6.8, 0.5 mM TCEP, 3% glycerol, 20 uM ZnCl2, 0.2 U/ul SUPERase-In; smFRET: 25 mM HEPES pH 7.0, 150 mM KCl, 0.01% octaethylene glycol monododecyl ether, 0.2 mM TCEP, 6 mM BME, 1.5 mM Trolox, oxygen scavenger, room temperature, excess U2AF1 (1000 nM) with heterodimer; conditions: protein: recombinant;recombinant; tags: N-terminal His6-SUMO-MBP with AAA linker; C-terminal extra Ala;GST cleaved; Cy3/Cy5 on C181 and C324; copies: 1;1; label: biotin on annealed DNA; stem-loop (predicted)
[12] = molecular target: T2, His6SumoMBP-U2AF1 S34F;U2AF2 Cy3/Cy5; assay: smFRET; RNA tethered; 33% closed; Anisotropy: 150 mM NaCl, 25 mM HEPES pH 6.8, 0.5 mM TCEP, 3% glycerol, 20 uM ZnCl2, 0.2 U/ul SUPERase-In; smFRET: 25 mM HEPES pH 7.0, 150 mM KCl, 0.01% octaethylene glycol monododecyl ether, 0.2 mM TCEP, 6 mM BME, 1.5 mM Trolox, oxygen scavenger, room temperature, excess U2AF1 (1000 nM) with heterodimer; conditions: protein: recombinant;recombinant; tags: N-terminal His6-SUMO-MBP with AAA linker; C-terminal extra Ala;GST cleaved; Cy3/Cy5 on C181 and C324; copies: 1;1; label: biotin on annealed DNA
[13] = molecular target: T1, His6SumoMBP-U2AF1;U2AF2 Cy3/Cy5; assay: smFRET; RNA tethered; 66% closed; Anisotropy: 150 mM NaCl, 25 mM HEPES pH 6.8, 0.5 mM TCEP, 3% glycerol, 20 uM ZnCl2, 0.2 U/ul SUPERase-In; smFRET: 25 mM HEPES pH 7.0, 150 mM KCl, 0.01% octaethylene glycol monododecyl ether, 0.2 mM TCEP, 6 mM BME, 1.5 mM Trolox, oxygen scavenger, room temperature, excess U2AF1 (1000 nM) with heterodimer; conditions: protein: recombinant;recombinant; tags: N-terminal His6-SUMO-MBP with AAA linker; C-terminal extra Ala;GST cleaved; Cy3/Cy5 on C181 and C324; copies: 1;1; label: biotin on annealed DNA

T2 sequence (P26368 85-342 A181C/C305A/Q324C, one chain of several): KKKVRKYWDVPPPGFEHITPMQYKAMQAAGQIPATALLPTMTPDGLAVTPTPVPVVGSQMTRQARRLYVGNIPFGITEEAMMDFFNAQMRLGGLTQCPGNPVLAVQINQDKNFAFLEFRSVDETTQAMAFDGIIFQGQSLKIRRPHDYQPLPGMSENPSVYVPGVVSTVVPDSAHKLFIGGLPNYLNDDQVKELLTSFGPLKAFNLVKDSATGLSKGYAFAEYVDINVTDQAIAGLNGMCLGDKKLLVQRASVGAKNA
T1 sequence (P26368 85-342 A181C/C305A/Q324C, one chain of several): as above
T5 sequence (P26368 85-342 A181C/C305A/Q324C): as the sequence (P26368 85-342 A181C/C305A/Q324C, one chain of several) above
T3 sequence (P26368 113-342 A181C/C305A/Q324C): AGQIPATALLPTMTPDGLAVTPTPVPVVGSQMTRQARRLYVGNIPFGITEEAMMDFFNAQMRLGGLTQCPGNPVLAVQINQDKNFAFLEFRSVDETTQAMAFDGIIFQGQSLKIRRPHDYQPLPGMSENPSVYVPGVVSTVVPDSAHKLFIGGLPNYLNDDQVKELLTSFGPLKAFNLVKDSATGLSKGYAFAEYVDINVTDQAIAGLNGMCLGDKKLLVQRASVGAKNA
T4 sequence (P26368 85-342 A181C/D215R/C305A/G319R/Q324C): as the sequence (P26368 85-342 A181C/C305A/Q324C, one chain of several) above, with D131R, G235R counted along it

Binder: UCCCUUUUUUUUCCACAGCUCGCGGU (ssRNA) [AdML]
- Kd [1]: ~600 nM

Binder: UACUAAAUUAAUUUCUAGAAAAGAGU (ssRNA, 3' PEG18-DNA conjugate) [DEK (-3U)]
- binding result [2]: binds
- binding result [3]: binds
- binding result [4]: binds

B1: His6SumoMBP-U2AF1 (residues 1-188, C67S, C-terminal alanine) (domain or fragment, human)
chain: MAEYLASIFGTEKDKVNCSFYFKIGACRHGDRCSRLHNKPTFSQTIALLNIYRNPQNSSQSADGLRSAVSDVEMQEHYDEFFEEVFTEMEEKYGEVEEMNVCDNLGDHLVGNVYVKFRREEDAEKAVIDLNNRWFNGQPIHAELSPVTDFREACCRQYEMGECTRGGFCNFMHLKPISRELRRELYGRA
notes: C-terminal alanine added to enhance soluble protein expression; A three-alanine linker is part of the N-terminal tag; Modified pCDF-1b vector; also called U2AF^35; MBP-fused U2AF1; source: E. coli BL21(DE3), purified (HisTrap, Superdex-75 SEC); not shown: His6, N-terminal, kept; Sumo, N-terminal, kept; MBP, N-terminal, kept
- binding result [5]: binds
- binding result [6]: binds

B2: S34F-mutant His6SumoMBP-U2AF1 (residues 1-188, C67S, C-terminal alanine) (domain or fragment, human)
chain: MAEYLASIFGTEKDKVNCSFYFKIGACRHGDRCFRLHNKPTFSQTIALLNIYRNPQNSSQSADGLRSAVSDVEMQEHYDEFFEEVFTEMEEKYGEVEEMNVCDNLGDHLVGNVYVKFRREEDAEKAVIDLNNRWFNGQPIHAELSPVTDFREACCRQYEMGECTRGGFCNFMHLKPISRELRRELYGRA
notes: C-terminal alanine added to enhance soluble protein expression; S34F was introduced into the corresponding wild-type U2AF1 construct; three-alanine linker in the N-terminal tag as for m1; also called S34F U2AF1; S34F mutant U2AF1; source: E. coli BL21(DE3), purified by identical methods as the wild-type parent (HisTrap, Superdex-75 SEC); not shown: His6, N-terminal, kept; Sumo, N-terminal, …
- binding result [7]: binds

Binder: UGUCUCUGUCACCUGCAGGUGAAAUG (structured_RNA, 3' PEG18-DNA conjugate) [IgM (-3C)]
- binding result ([2]; stem-loop): binds
- binding result [8]: binds
- binding result [9]: binds

Binder: UGUCUCUGUCACCUGUAGGUGAAAUG (structured_RNA, 3' PEG18-DNA conjugate) [IgM(-3U)]
- binding result [10]: binds
- binding result [11]: binds

Binder: CCAUUUAUUUUGACUUAGAUUAUAUU (ssRNA, 3' PEG18-DNA conjugate) [CASP8]
- binding result [2]: binds
- binding result [4]: binds

Binder: ACUUUUAACUCUCGAUAGGAACUAAU (ssRNA, 3' PEG18-DNA conjugate) [FMR1]
- binding result [12]: binds
- binding result [13]: binds
